Data published in article PMC2744858.

How the values were obtained:
[1] = target: 14-3-3ζ (UniProt P63104); assay: PACS-2 co-immunoprecipitation, 14-3-3ζ-myc western blot; conditions: reference: wild-type HA-PACS-2; sites S437
[2] = target: 14-3-3σ (UniProt P31947); assay: GST pull-down, 14-3-3σ-His6 western blot; conditions: reference: wild-type GST-PACS-2MR; sites S437

| binding against the reference [1] | binding against the reference [2] | Substance |
| --- | --- | --- |
| lost |  | PACS-2 (from UniProt Q86VP3) PACS-2 S437A |
|  | lost | PACS-2 middle region (MR) (from UniProt Q86VP3) S437A |
